Substitutions are numbered along the chain they refer to.
B1: 57 (protein)
chain: MAKLICVEEHVLDPAVGAATQSLVRAEAPYLPDWGSRVLDGRHVADRSRPHVIAPSESARKALEMGEPRLADMDAASIDMQVLSYGGFPQLLPAAQAIDLNRAANDKLALAAQAHPARFAGFATLPWQAPEAAARELERAVKQLGLKGALINGRPGDTFLDDARYAPILAAFDELKVPLYVHPGLPLPAVQAPYYGGFERELSARLAMFAWGWHNEAGIQVVRMLLAGVFDRHPRLQLISGHWGEMVPFFLQRLEDSIPQEASGLQRPIVQTYREHVYISPSGMFTLPHFQFIHALMGAQRILYSIDYPYQSLDGARAFIERLPISDTDKALIAHRNAERLLHL
modifications: Collimonas fungivorans
B2: 61 (protein, listed as Gordonia amarae)
chain: MATGAGSGVPSPADRVIVRSPGVIDVHAHAVLPMSLGCAGAAGPEIGYREDGSPFFRVGEYVLNGVRYEGSAFMDPEVRVAAMDAAGIGLQMISPNPITYFTRLDARSATDYARAHNDAIAEAAGRHPGRLVGAAQLPMQDVPAAIAELERSVRELGLVAAYIDTDIGDRTLDAPELDDFYSAAVELDVPVFIHPSPVGQEGPPDDTRLRRFDLDLLLGFSYDETLAVAALVFGGVLERHPALDVCLSHGGGTLAFVAGRFARAVAKPRAWVPEFLVENGIESYLRRLWLDTHVHSAGSLRLLIDTVGTDRLVFGTNFAGWDADGATEVDALGDLRETTTANAAHLLRLGRA
B3: 4 (protein, listed as Lactobacillus buchneri)
chain: MAKVITLEEHFSSQKLGQKMAEVLPKRPIGNVSPKMQDYMQRSLPPEAELEDVTGSRIQWMDQHQISMQILSYGNQNPQNSDPKFAVELTKLANDELAKAVAKAPDRFRAFASLPVSHPTDAAAELKRGVEELGFKGAMLVRPTSQAHPFFDDPFYLPIFEAAANLNVPVYLHPSFPDSQIIDYYYSNGPWDDKVSGILGTAGYGWHTDVGIQTVRLLLSGVFEKYPNLKLISGHWGEFASFALERMDQVMYPETNLSEPISKIYRDHVYVTPSGILTEPQLKFVKDEVGIEHLLYSIDYPYIKPENSGSFIESSPLTDEEKELFAHGNAEKLLQL
B4: 58 (protein)
chain: MARVIALEEHYATTEFLRGPGTWLASRPGIVEPAGDLGDGRIAAMDQAGVDLAVLSLAAPGVEQLDPDDAVRLARDCNDQLAAAVRRYPDRLAGFATVPTSAPDRAADELERAVRGLGFPGAVINGHSRGRYLDDPFFEPVLARAAELQAPIYLHPTIPPAGVIESSYAGFAEPVTFALATVGWGWHINTATHALRMILGGVFDRHPSLQMIIGHMGEATSFMLPRFDATLKPELTGLNHPVSSYLRENFHYTFANFNDHATYANLVAQVGIERVAFSADYPFGSMVDARAFLDGLPLSDDERAAISHRNAEKLLGL
modifications: Mycobacterium colombiense
B5: 51 (protein, listed as Mycobacterium gilvum)
chain: MARVIAIEEHYAHPGLQPAEALANLRKHPQLARIQDKLEDLGAGRLADMDAAGIDMQVLSHTVPGAEALPAAQAVDVVRQTNDDLAEVIAAHPDRFAGFAALPMRDPQAAATELQRAVGTLGFCGAMINGLIEGRFLDHPDFTPLLSTAADLGVPLYLHPSFPPPQVAQIYFGGLPPVLADLLATAGWGWHAETALHVLRLISTGVFDRLPELRVIVGHMGEMIPFALARIDTVLSPMTELRQPVAQYFQTNVWFTTSGYTTFPPLQCALSTVGIDRLIFSVDYPYTDNASARALLDTAPISPVDREKLAHATVEALLRV
B6: 52 (protein, listed as Streptomyces sp.)
chain: MAKIIALEEHFSDPAVAKAGAARAQALSPGFAASYSPASGLPYSPSPEVLENLAEKRLADMDAGGITMQVLSGLSAQTVPADVAPALVAGSNDKAAAAVRAHPDRFAAFAALPTAAPEAAVAELDRSVNELGFVGTLIMGRTEGEFLDAPRFEPILARAAALKVPVFLHPGVPPREITDSNYAAGLPTGIGTRLQTAAWGWHQETAVHFLHLVHSGVLDRYPDLQFILGHWGETIPFYLDRVDEALPQRATGLDRSFHEYFRENVYLAPSGMWSQAQLRFCLETFPLERIVFAVDYPFIGNEGAVPFLEKAELPEADKRKIAHENAERLLGL
B7: 54 (protein, listed as Streptomyces sp.)
chain: B6 chain with S75G, V128I, D223G, T234M, F285V
B8: 60 (protein, listed as Catenulispora acidiphila)
chain: MARGFVRTAVVPGFWDAGWRGAGQPGGMRVDVHAHLFPAAYLDLLDDFRQDGGVGTREVRALGGGDGERELRLRLAAMDAVGVDVQLLSTCPQGPYTGDPTAAVEAARCANVALAQTVAQYPERLRALAALPLPHILASVDELNRAMEQDGMLGAAVGTSILGRPLSHPDFEPLFAALNRRKGVLFVHPIGESAGSPLMQASKLDRVIGYAAEVSTAILQLFQAGLTVKYPDIRIIAPHMGGYLPFLIQRLDRHRDWYLPKDAPSAGQLMRGIAYDTANPLPAALRLTAEVVGPERLLLGTDYPFEQGPSLRDHIEYILAAGLPEAQAKMIVDVNAADFLDMRSGAEQPPV
B9: 56 (protein)
chain: MAKIICLEEHYLDSELGRACMPVALEQAPFLGDWGKTVADGHNPDRSRPQIEKNALINAKGADLGSRRLRDMDEAGITLQILSVGGFPQLAPEDEAVTLNTAANDRLAEAVRNHPDRFAAFATLPWAQPKDAENELVRAVEKLGFKGALLNGRPSSCFLDHPDYDSLLSRFNKLNVPLYLHPGLPLKSVQQAYFTGFSAEVNARLSMFGWGWHHEAGIHLLRLMLSGAFDKYPNMQVISGHWGEMLPFWLQRLDDSLPLAATGLSRTLTRTFQEHVYVTPSGMLTLPHFKFIYELMGAERILFSVDYPYQTLDGVKTFIDSLPVNKAEKEAIAFRNAERLLGITA
modifications: Enterobacter aerogenes
B10: 53 (protein, listed as Granulicella tundricola)
chain: MARTITLEEHFVTDSFLRATGAYDKPAPPWLAQLQPKLLDLGDGRIAAMDEAGIDLQVLSLAALGFDALDAATATPLVHDINDELAAAVRANPTRLAAFASLALKDPQSAARELERAIQKLGFRGVLLDGTTDGLFLDDPRFTPVFEAAVALNVPIYLHPAPPPESVFDTYFTGLPEGVGQMLSIAGWGWHAETALHTLRLITNGVFDRYPTLQLIIGHMGEMLPMALARTSKALSHAARLRQPVAAYFQSNIHLTTSGYFTQPPLRCALDVVGIDRLMFSIDYPFSANTLGRDYLTELEQTLTPEDLAKLIHRNAESLLNLS
B11: 55 (protein, listed as Serratia sp.)
chain: MAKIICLEEHTLDKALVMASMPAALEQAPFLSDWGKTVTDGNLPDRSRPQIEKNDLINIKGADIGRGRLDDMDVAGITMQVLSVGGFPHLISAAEGVDLNRAANDRLADAVNAHPDRFAAFATLPWAQPDSAEKELERAVKELGFKGALLNGRPSTHFLDHPDYDGLLARFNALGVPLYLHPGLPVRSVQQAYYGGFSDEVTARLSMFGWGWHHEAGIHLLRLILSGAFDKYPNLQVISGHWGEMLPFWLQRLDDSLPQAATGLRRTIAQTFKEQVYVTPSGMLTLPHFQFIYALLGAERIIFSVDYPYQTLDGVKAFIQSLPVPEEAKEAIAFRNAERLLGLTS
B12: 62 (protein)
chain: MAVGGKNFRDVTDQVWCPKKRIEDMDREGVDIQVLSPIPVTFSYWAKPEEAESMARIQNDFIAETVLAYPDRFVGLGTVPMQDGETAIREMERCITELNLHGIEIGTNVNGKNLDDPSFIEFFRMAEKWQVPIFIHPWETLGRDRMPHHNFMYTVGMPSETALAAATLIWSGIMEKFPRLKVCFAHGGGSFPYILPRLDQGWKVWPHLRLTTHPPSYYAKKFYFDSLNYDPINLKYMIERFGHEKIFMGSDYPFLLREVDPGKVIDETASLSEEQKAAMLGGNAAEFLNIDIKKRGVAYAESTNT
modifications: Bacillus thuringiensis serovar pulsiensis
B13: 59 (protein)
chain: MAPSVIDAHAHFLPGSLVTALRSRSDAPDIRTDSNGGESFGIYRTRMPYGRTYDALDVRLARMDELGVDRQILSLPGLFGIDSRPVSQALPLVRAFNDGVADLVRKHPDRFSGIAALPLADLDAAQEEYRRARGDLGLSGLILPGDTFVSVAAAERVRPLFELAATIGGLIFVHPGPLPDETGSAVDAPAPHTDSVVHRRVTVDIQNRMTEVMVTLALTDFLAPYPSVPVQVANLGGSLPFVIERMDHVYALRNPEAPPPSLSLRSLYVDAASLGPRAIALAAEVYGADRVLFGSDYPIFDDGRCLDAVRQTRLSPDARALIAGGNAARMLTQT
modifications: alpha proteobacterium
B14: 64 (protein, listed as Achromobacter piechaudii)
chain: MAIQKIDMHAHFFPPITRQEAAALDPVNAPWLRPDADGATGQIMAGEREFRPVDATLWDPALRIEQMDRHGVDVQILCATPIMFGYTYPARPAADWAARMNDLALEHCAYAPSRLKALAQVPLQDLELACQEASRARAAGHLGVQIGNHVGPRDLDDETLVQFLIHCANNDIPVLVHPWDMMTDGRMKKWMLPWLVSMPAETQLGILSLILSGAFERIPRSLKLCFAHGGGSFAYLLGRVDNAWRHRDIIRQDCPQLPSSYTDRFYTDSAVFDPRSLRLLIDVMGEDRVLLGSDYPYPLGEQEVGRLVAHAELVPEVQQKILFRNTMTFFGLQPGLQPGLQS

test: 14C assay with IPTG-induced recombinant E. coli cells (14CO2 capture from [14C]-carboxyl-labeled dicamba); conditions: IPTG-induced recombinant E. coli cells; [14C]-carboxyl-labeled dicamba; 14CO2 capture

Row | Molecule | Dicamba Decarboxylase Activity
1 | B1 | High
2 | B2 | No
3 | B3 | High
4 | B4 | High
5 | B5 | High
6 | B6 | High
7 | B7 | High
8 | B8 | No
9 | B9 | High
10 | B10 | High
11 | B11 | High
12 | B12 | No
13 | B13 | No
14 | B14 | Low

same assay, conditions: dicamba decarboxylation activity of the protein of the given SEQ ID NO

Row | Molecule | Enzymatic Detection level
15 | B1 | High
16 | B2 | No
17 | B3 | High
18 | B4 | High
19 | B5 | High
20 | B6 | High
21 | B7 | High
22 | B8 | No
23 | B9 | High
24 | B10 | High
25 | B11 | High
26 | B12 | No
27 | B13 | No
28 | B14 | Low
